According to patent US20230174651A1 (Janssen / Centocor, published 2023):
Residue numbers refer to the chain shown, from its start. Blank lines part the entries; values can stand above or below the binder they belong to.

Tests used:
[1] = molecular target: T1, CAR with CD8α hinge as the spacer, expressed on Jurkat CAR-T cells; test: flow cytometry (iQue) on Jurkat CAR-T cells, A647 anti-human IgG Fc detection
T1 construct: domain: CD8α hinge; also called CD8α hinge expressed on the Jurkat CAR-T cells
T1 sequence (P01732 138-182): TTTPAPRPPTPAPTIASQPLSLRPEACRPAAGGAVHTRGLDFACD
Experimental: mAbs were 1:3 serially diluted ranging from 100 nM to 1.7 pM and were incubated with cell mixture containing Jurkat CAR-T cells (unstained), Jurkat cells (CTV dye stained) and Sup-T1 cells (CSFE dye stained) in assay media (RPMI 1640+10% HI FBS+Pen/strep) for 1 hr at 37° C. […] Cells were then washed and analyzed by iQue screener (Intellicyt®). ForeCyt software was used for data analysis. The ratio of geomean of AF647 fluorescent signal from sample over the isotype control antibody (Signal) was used for the dose-dependent plot (FIGS. 2A-2F).

[2] = molecular target: T2, human CD8α on primary CD8+ T cells (human, UniProt P01732 22-235); test: flow cytometry on PBMC, 2 µg/mL mAb, positive cells among EM CD8 T cells, Donor 2
T2 construct: Endogenous CD8 on T cells from PBMC; also called CD8+ primary T cells; human primary CD8+ cells
T2 sequence (P01732 22-235): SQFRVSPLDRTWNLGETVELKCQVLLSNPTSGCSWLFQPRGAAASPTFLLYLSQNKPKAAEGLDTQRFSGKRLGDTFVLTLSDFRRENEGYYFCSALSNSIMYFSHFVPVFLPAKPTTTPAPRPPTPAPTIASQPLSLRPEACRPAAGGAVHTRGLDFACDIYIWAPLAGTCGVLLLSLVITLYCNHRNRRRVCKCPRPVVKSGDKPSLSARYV
Experimental: (§1) Frozen PBMCs were thawed and resuspended in FACS buffer (PBS+2% FBS). Cells were then incubated with Fc block for 15 min at 4 C prior to incubation with 2 μg/mL of each CD8α hinge binders at room temperature for 45 min. […] After staining, cells were washed with FACS buffer twice and resuspended in 100 μl PBS containing DAPI for acquisition. Cells were first gated on FSC/SSC, followed by live cell gating (DAPI negative cells) followed by singlet gating. CD3 T cells were identified using FSC versus CD3 dot plot. Within the CD3 T cells, CD4 and CD8 T cells were gated. Naïve, Effector, EM and CM cells were identified within the CD8 T cells using CD45RA and CD27 dot plot. Within each of the cell types, the secondary only control was used to set the gates to identify the positive stained population. The percentage of positive cells in CD8+ T cell population with binding to CD8α hinge binders were quantified and summarized in Table 13.

[3] = molecular target: T2, human CD8α on primary CD8+ T cells; test: flow cytometry on PBMC, 2 µg/mL mAb, positive cells among EMRA CD8 T cells, Donor 2
Experimental: as §1

[4] = molecular target: T3, soluble CAR extracellular domain (ECD) containing scFv and CD8α hinge (UniProt P01732 138-182, biotinylated); test: BLI (OctetRed384), GC5W48-Btn (biotinylated CAR ECD) loaded on streptavidin tip, mAb in solution; first of two table rows
T3 construct: domain: CD8α hinge; also called soluble CAR ECD; CAR ECD
T3 sequence (P01732 138-182): as the sequence (P01732 138-182) above
Experimental: (§2) To determine the binding affinity and kinetics of mAbs to CD8α hinge, soluble CAR extracellular domains (ECD) containing scFv and CD8α hinge was generated for Bio-layer interferometry (BLI) analysis using OctetRed384 (Sartorius). The CAR ECD was biotinylated and loaded to streptavidin sensor tip. Then mAbs were associated to the sensor and followed by disassociation in the assay buffer. Data was analyzed by Octet software (Sartorius).

[5] = molecular target: T2, human CD8α on primary CD8+ T cells; test: flow cytometry on PBMC, 2 µg/mL mAb, positive cells among EMRA CD8 T cells, Donor 1
Experimental: as §1

[6] = molecular target: T2, human CD8α on primary CD8+ T cells; test: flow cytometry on PBMC, 2 µg/mL mAb, positive cells among CD8+ T cells, Donor 1
Experimental: as §1

[7] = molecular target: T2, human CD8α on primary CD8+ T cells; test: flow cytometry on PBMC, 2 µg/mL mAb, positive cells among CD8+ T cells, Donor 2
Experimental: as §1

[8] = molecular target: T2, human CD8α on primary CD8+ T cells; test: flow cytometry on PBMC, 2 µg/mL mAb, positive cells among EM CD8 T cells, Donor 1
Experimental: as §1

[9] = molecular target: T3, soluble CAR extracellular domain (ECD) …; test: BLI (OctetRed384), GC5W48-Btn loaded on streptavidin tip; row 'average'; the sheet puts this number under 'kon (1/Ms)', Table 14 of the text under 'kd (1/s)'
Experimental: as §2

[10] = molecular target: T3, soluble CAR extracellular domain (ECD) …; test: BLI (OctetRed384), biotinylated CAR ECD on streptavidin tips; the cell stands under the head 'KD (M)' (heads shifted)
Experimental: as §2

[11] = molecular target: T3, soluble CAR extracellular domain (ECD) …; test: BLI (OctetRed384), GC5W48-Btn (biotinylated CAR ECD) loaded on streptavidin tip, mAb in solution; second of two table rows; column head 'kdis (1/s)'
Experimental: as §2

[12] = molecular target: T3, soluble CAR extracellular domain (ECD) …; test: BLI (OctetRed384), GC5W48-Btn (biotinylated CAR ECD) loaded on streptavidin tip, mAb in solution; first of two table rows; column head 'kdis (1/s)'
Experimental: as §2

[13] = molecular target: T3, soluble CAR extracellular domain (ECD) …; test: BLI (OctetRed384), biotinylated CAR ECD on streptavidin tips; the cell stands under the head 'ka (1/Ms)' but the text gives 1.83 nM as the affinity (heads shifted)
Experimental: as §2

[14] = molecular target: T3, soluble CAR extracellular domain (ECD) …; test: BLI (OctetRed384), GC5W48-Btn (biotinylated CAR ECD) loaded on streptavidin tip, mAb in solution; second of two table rows
Experimental: as §2

[15] = molecular target: T3, soluble CAR extracellular domain (ECD) …; test: BLI (OctetRed384), biotinylated CAR ECD on streptavidin tips; the cell stands under the head 'kd (1/s)' (heads shifted)
Experimental: as §2

[16] = molecular target: T3, soluble CAR extracellular domain (ECD) …; test: BLI (OctetRed384), GC5W48-Btn loaded on streptavidin tip; row 'average'; the sheet puts this number under 'kdis (1/s)', Table 14 of the text under 'KD (M)'
Experimental: as §2

[17] = molecular target: T3, soluble CAR extracellular domain (ECD) …; test: BLI (OctetRed384), biotinylated CAR ECD on streptavidin tips; the cell stands under the head 'ka (1/Ms)' but the text gives 5.58 nM as the affinity (heads shifted)
Experimental: as §2

EC50 [1]: 32.6 nM | Binding+ in EM (%) [2]: 77.9% | Binding+ in EMRA (%) [3]: 92.8% | Kd [4]: 2.01 nM | kon [4]: 89100 M⁻¹ s⁻¹ | Binding+ in EMRA (%) [5]: 81.3% | Binding in CD8+ cells (%) [6]: 84.4% | Binding in CD8+ cells (%) [7]: 96.4% | Binding+ in EM (%) [8]: 69.5% | kon [9]: 68000 M⁻¹ s⁻¹ | koff [10]: 0.000128 s⁻¹ | koff [11]: 7.72e-05 s⁻¹ | koff [12]: 0.000179 s⁻¹ | Kd [13]: 1.83 nM | Kd [14]: 1.65 nM | kon [14]: 46800 M⁻¹ s⁻¹ | kon [15]: 68000 M⁻¹ s⁻¹ | koff [16]: 0.000128 s⁻¹
B1: CD8B575 (antibody, human IgG1, kappa, V domains shown)
VH: QVQLQQSGGGLVQPGGSLKLSCAASGFTFSNYYMSWARQTPEKRLEWVAYISNDGDATYYPDSVKGRFTISRDNAKNTLYLQMSSLKSEDTAMYYCTREDYYSDYWFASWGQGTTVTVSS
VL: DIVMTQSQKFMSTTIEDRVSITCKASQNVGTAVAWYQQKPGQSPKLLIYSTSNRYTGVPDRFTGSGSGTDFTLTISNIQSEDLADYFCQQYSSYPLTFGGGTKLEIKR
notes: Mouse variable regions on human IgG1 / human kappa constant regions, made in CHO cells; also called AF647-CD8B575

EC50 [1]: 2.9 nM | Kd [17]: 5.58 nM | Binding+ in EM (%) [2]: 72.8% | Binding+ in EMRA (%) [3]: 7.67% | Kd [4]: 4.81 nM | kon [4]: 237000 M⁻¹ s⁻¹ | Binding+ in EMRA (%) [5]: 67.6% | Binding in CD8+ cells (%) [6]: 71.6% | Binding in CD8+ cells (%) [7]: 32.9% | Binding+ in EM (%) [8]: 65.1% | kon [9]: 241000 M⁻¹ s⁻¹ | koff [10]: 0.00135 s⁻¹ | koff [11]: 0.00156 s⁻¹ | koff [12]: 0.00114 s⁻¹ | Kd [14]: 6.35 nM | kon [14]: 245000 M⁻¹ s⁻¹ | kon [15]: 241000 M⁻¹ s⁻¹ | koff [16]: 0.00135 s⁻¹
B2: CD8B612 (antibody, human IgG1, kappa)
heavy: not shown
light: DIVMTQTPLSLPVSLGDQASISCRSSQNIVHSNGNTYLEWYLQKPGQSPKLLIYRVSKRFSGVPDRFSGSGSGTDFTLKITRVEAEDLGVYYCFQGSHVPWTFGGGTKLEIKRTVAAPSVFIFPPSDEQLKSGTASVVCLLNNFYPREAKVQWKVDNALQSGNSQESVTEQDSKDSTYSLSSTLTLSKADYEKHKVYACEVTHQGLSSPVTKSFNRGEC
notes: Mouse variable regions on human IgG1 / human kappa constant regions

EC50 [1]: 37 nM | Binding+ in EM (%) [2]: 50.3% | Binding+ in EMRA (%) [3]: 4.25% | Binding+ in EMRA (%) [5]: 60.6% | Binding in CD8+ cells (%) [6]: 63.1% | Binding in CD8+ cells (%) [7]: 16.7% | Binding+ in EM (%) [8]: 50.4%
B3: CD8B622 (antibody, human IgG1, kappa)
heavy: not shown
light: B2 light
notes: Mouse variable regions on human IgG1 / human kappa constant regions; also called CD8B622.001

EC50 [1]: 7.8 nM | Binding+ in EM (%) [2]: 60.6% | Binding+ in EMRA (%) [3]: 5.38% | Binding+ in EMRA (%) [5]: 63.3% | Binding in CD8+ cells (%) [6]: 65.3% | Binding in CD8+ cells (%) [7]: 19.5% | Binding+ in EM (%) [8]: 56.5%
B4: CD8B623 (antibody, human IgG1, kappa)
heavy: not shown
light: B2 light with I2V
notes: as for B2

EC50 [1]: 1.9 nM | Binding+ in EM (%) [2]: 75.9% | Binding+ in EMRA (%) [3]: 8.76% | Binding+ in EMRA (%) [5]: 72% | Binding in CD8+ cells (%) [6]: 73.8% | Binding in CD8+ cells (%) [7]: 28.1% | Binding+ in EM (%) [8]: 70.5%
B5: CD8B613 (antibody, human IgG1, kappa)
heavy: not shown
light: B2 light with I2V, V3Q, T5I, T7S
notes: as for B2

EC50 [1]: 23.7 nM | Binding+ in EM (%) [2]: 89.1% | Binding+ in EMRA (%) [3]: 97.3% | Binding+ in EMRA (%) [5]: 90.3% | Binding in CD8+ cells (%) [6]: 88.5% | Binding in CD8+ cells (%) [7]: 97.8% | Binding+ in EM (%) [8]: 86.2%
B6: CD8B617 (antibody, human IgG1, kappa)
heavy: not shown
light: DIQMTQSPLTLSVTIGQPASISCKSSQSLLDSDGETYLNWLLQRPGQSPKRLIYLVSKLDSGVPDRFTGSGSGTDFTLKISRVEAEDLGVYYCWQGTHFPLTFGGGTKLEIKRTVAAPSVFIFPPSDEQLKSGTASVVCLLNNFYPREAKVQWKVDNALQSGNSQESVTEQDSKDSTYSLSSTLTLSKADYEKHKVYACEVTHQGLSSPVTKSFNRGEC
notes: as for B2

EC50 [1]: 24.7 nM | Binding+ in EM (%) [2]: 87.4% | Binding+ in EMRA (%) [3]: 97.1% | Binding+ in EMRA (%) [5]: 87.9% | Binding in CD8+ cells (%) [6]: 87.5% | Binding in CD8+ cells (%) [7]: 97.7% | Binding+ in EM (%) [8]: 82.8%
B7: CD8B607 (antibody, human IgG1, kappa)
heavy: not shown
light: B6 light with S7T
notes: as for B2

EC50 [1]: 21.6 nM | Binding+ in EM (%) [2]: 91.5% | Binding+ in EMRA (%) [3]: 97.8% | Binding+ in EMRA (%) [5]: 91% | Binding in CD8+ cells (%) [6]: 88.8% | Binding in CD8+ cells (%) [7]: 98.2% | Binding+ in EM (%) [8]: 88.5%
B8: CD8B611 (antibody, human IgG1, kappa, V domains shown)
VH: EVQLQQSGAELVRPGASVNLSCTASGFNFKDDYMHWVKQRPEQGLEWIGWIDPENGDAAYASKFQGKATITADTSSNTAYLQLSSLTSEDTAVYYCITIFRSYWGQGTTLTVSS
VL: not shown
notes: as for B2
